Test: yeast display, Sf9 membrane polyspecificity reagent, FACS + sequencing; frameworks hold sequencing errors
Method in brief: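 Nanobodies from a synthetic yeast display library (Saccharomyces cerevisiae BJ5465), induced 36–48 hours with galactose, were stained 1 hour at 4 °C with 10% biotinylated, detergent-solubilized Sf9 membrane reagent, enriched on streptavidin microbeads, then FACS-sorted. Anti-HA (expression) and streptavidin (reagent binding) fluorescence set low and high (top ~1%) gates. Polyreactivity labels come from the gate of origin. Genes were colony-PCR amplified, MiSeq 2 × 250 sequenced and filtered by CDR length.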

| Sequence | polyreactivity (PSR sort gate) |
| --- | --- |
| QVQHVESGGGLVQAGRSLRLSCAASGSIVGNNAMGWYRQAPGKERELVAVITDGGNTYYADSVKGRFTISRDNAKNTVYLEMNSLKPEDTAVYYCNADWWGDSDYWGQGTQVTVSS | low polyreactivity |
| QVQLVESGGGLVQAGGSLRLSCAASGYTMGWYRQAPGKEREYGAAINQTGGSTYADSVKGRFTISRDNAKNTVYLQMNSLKPEDTAVYYCATDPAYWGDQPPEYDYWGQGTQVTVSS | low polyreactivity |
| QVQLVESGGGLVQAGGSLRLSCAASGSIYTNAMGWYRQAPGKERELVAAISWSGGRTYYADSVKGRFTISRDNAKNTVYLQMNSLKPEDTAVYYCAADYYYSQVAYDYWGQGTQVTVSS | high polyreactivity |
| QVQLVESGGGLVQAGGSHRLSCAASGRTFPGNAMGWYRQAPGKERELVAAISWSGTRTYYADSVKGRFTISRDNAKNTVYLQMNSLKPEDTAVYYCNVVVKGAWDYYPYDYWGQGTQVTVSS | high polyreactivity |
| QVQLVESGGGLVQAGGSLRLSCAASGITFDDYAMGWYRQAPGKERELVAAISESGDSTYYADSVKGRFTISRDNAKNTVYFQMNSLKPEDTAVYYCAADSTYYYGWGMYYWGQGTQVTVSS | high polyreactivity |
| QVQLVESGGGLVQAGGSLRLSCAASGFTFRYYAMGWYRQAPGKERELVAAISAGGSTYYADSVKGRFTISRDNAKNTVYLQMNSLKQEDTAVYYCTARYQGFVITYYYWGQGTQVTVSS | high polyreactivity |
| QVQLVESGGGLVQAGGSLRLSCAASGRIFPSYAMGWYRKAPGKERELVAAISDSDGSTYYADSVKGRFTISRDNAKNTVYLQMNSLKPEDTAVYYCAAEGSFPAYDYWGQGTQVTVSS | low polyreactivity |
| QFQLVESGGGLVQAGGSLRLSCAASGSIITPYAMGWYRPAPGKERELVAAISGRGGSTYYADSVKGRFTISRDNAKNTVYLQMNSLKPEDTAVYYCAARQYFRWYGWSMDYWGQGTQVTVSS | high polyreactivity |
| QVQLVESGGGLVQAGGSLRLSCAASGRIFDYYTMGWYRQAPGKESELVAAITKSGGSTYYADSVKGRFTISRDNAKNTVFLLMNILKPEDTAVYYCAAVTYDYYWFGDIEDDFWGQGTQVTVSS | low polyreactivity |
| QVQLVESGGGLVKAGGSLRISCAASGSIFTPYTMGWYRQAPGKERELVAAISSGDSTYYADSVKGRFTISRDNAKKTVYLQMNSLKPEDTAVYYCAADYRYDYDYWGQGTQVTVSS | low polyreactivity |
| QVQLVESVGGLVQAGGSLLLSCAASGGIFWVYALGWYRQAPGKVRELVAAISYDTTSTYYADSVKGRFTISRDNAKNTVYLQMNRLKPEDTAVYYCNKTTLLTVEYDYGGQGTQVTVSS | low polyreactivity |
| QVHLVESGGGLVQAGGSLRLSCAASGSTFTDYTIGWYRQAPGKERELVARIRSRGARTYYADSVKGRFTISRDNAKNTVYLQMNSLKPEDTAVNSCNKRWGCLRASPAYDYWGQGTQVTVSS | high polyreactivity |
| QVQLVESGGGLVQAGGSLRLSCAASGFTFQYYAMGCYRQAPGKERELVAAISARDGSTYYADSVKGRFTISRDNAKNTVYLQMNSLKPEDTAVYYCAARSNYRNAYAYYYWGQGTQVTVSS | high polyreactivity |
| QVQLVESGGGLVQAGGSLRLSCAASGSTFVDYAMGRYRQAPGKERELVAAITRSGSSTYYADSVKGRFTISRDIAKNTVYLQMNSLKPEDTAVYYCAAVRYRGLQVKFYYWGQGTQVTVSS | high polyreactivity |
| QVQLVESGGGLVQEGGSLRLSCAASGLIFPSYARGWYRPAPGKERELVAGINTGGSTNYADSVKGRFTISRDNAKNTVSLQMNSQKPEDTAVYYCAKDNNYYWYVSPRDYWGLGTQVTVSS | low polyreactivity |
| QVQLVESGGGLVQAGGSLRLSCAASGRIFLTYAMGWYRQAPGKERELVAAITRRGGRTNYADSVKGRFTISRDNAKNTVYLQMNSLKPEDTAVYYCAKSPWPSHLDYDYWGQGTQVTVSS | low polyreactivity |
| QVQHVESGGGLVQAGGSLRLSCAASGRIFPYKAMGWYRQAPGKERELVAAISKSGVRTYYADSVKGRFTISRDNAKNTVYLQMNSLKPEDTAVYYCARGGYPGSAEYDYWGQGTQVTVSS | high polyreactivity |
| QVQLVESVGGLVQAGGSLRLSCAASGSIFRLYALGWSRQAPGKERELVAAIRYSTGRTYSADSVKGRFTISRDNAKNTVYLQMNSLKPEDTAVYYCNARSWYIRGSQEYYYWGQGTQVTVSS | high polyreactivity |
| QVQLVESGGGLVQAGGSLRLSCAASGFIFYHYAMGRYRQAPGKERELVAAISWNGGRTYYADSVKGRFTISRDNAKNTVYLQMNSLKPEDTAVYYCAAYWTRVERVYWGQGTQVTVSS | high polyreactivity |
| QVQLVDSGGGLVQAGGSLRLSCAASGRIFELYAMGWNTQATGKDRELVAVITNGGSTYYADSVKGRFTISRDNAKNTVYLQLNSLKPEDTAVYYCNGRRGYNRVGGSYGYWGQGTQVTVSS | low polyreactivity |
| QVQLVESGGGLVQAGGSLRLSCAACGFIFYINTMGWYRQAPGKERELVAAISQSGVGTSYADSVKGRFTISRDNAKNTVYLQMNSLKPEDTAVYDCATDFARSDVVDRFAYWRQGTQVTVSS | low polyreactivity |
| QVQLVESGGGLVQAGGSLRLSCAASGFTFERYTMGWYIQAPGKERELVATISRRSGRTSYADSVKGRFTISRDNAKNTVYLQMNSLKPEDTEVYYCAVDYAYPDRYDYWGQGTQVTVSS | high polyreactivity |

| Sequence | polyreactivity (PSR sort gate) |
| --- | --- |
| QVQLVESGGGLVQAGGSLRLSCAASGLIFVRYAMGWYRQAPGKERELVAAISRGGTTYYADSVKGRFTISRDNAKNTVYLQMNSLKPEDTAVYYCAVGIRYSKDYYYWGQGTQVTVSS | high polyreactivity |
| QVQLVESGGGLVQAGGSLRLSCAASGSTFVRYAMGWYRQAPGKERELVAAISNGGNTYYADSVKGRFTISHDNAKNTVYLQMNSLKPEDTAVYYCNKGYVYGHEYWGQGTQVTVSS | high polyreactivity |
| QVQLVESGGGLVQAGGSLRLSCAASGLTFNYYAMGWYRQPPGKESELVAAITSSGGRTYYADSVKGRFTISRDNAKNTGYLQMNSLKPEDTAVYYCNTVSYRLGAVWFSYDYWGQGTQVTVSS | high polyreactivity |
| QVQLVESGGGLVQAGGSLRLSCAASGLTFPYYAMGWYRQAPGKEREFVAAISRGGGRTSYADSVKGRFTISRDNAKNTVYLQMNSLKPEDTAVYYCAADDPGWYSDLYYYWGLGTQVTVSS | high polyreactivity |
| QVQLVESGGGLVQAGGSLRLSCAASGSTFPGYAMGWYRQAPGKERELVATISSGGSTNYADSVKGRFTISRDNAKNTVYLQMNSLKPEDTAVYYCAKLRSAKFRYGYWGQGTQVTVSS | low polyreactivity |
| QDQHVESGGGLVQAGGSLRLSIAASASTIGFNAMGWYRQAPGKERELVAAITFSGGTTYYADSVKGRFTISRDNAKNTVYFQMNSLKPEDTAVYYCNADWWYQYSGPFAPWGEDYWGQGTQVTVSS | low polyreactivity |
| QVQLVESGGGLVQAGGSLRLSCPASGRIFTSYAMGWYRQEPGKERELVAAINRGGSTYYADSVKGRFTISRDNAKNTVYLQMNSLKPEDTAVYYCNASQPYNPEFDYWRQGTQVTVSS | low polyreactivity |
| QVQLVESGGGLFQAGGSLRLSCAASGRIFHWYAMGWYRQAPGKERELHAAITDGDSTYYADSVKGRFTISRDNAKNTVYLQMNSLKPEDTAVYYCAADVVYSPYVFGGTRYYKYDYWGQVTQVTVSS | low polyreactivity |
| QVQLVESGGGLVQAGGSLRLSCAASGSTFYLNAMGWYRQAPGKERELVAAITVSGGSTYYADSVKGRFTISRDNAKNTVYLQMNSLKPEDTAVYYCARELLSPTYPRWYYYWGQGTQVTVSS | low polyreactivity |
| QVQLVESGGGLVQAGGSLRLSCAASGRIFGLYAMGWYRQAPGKERELVAAISWSGGRTYYADSVKGRFTISRDNAKNNVYLQMNSLKPEDTAVYYCAARSYYRSQYGFDYWGQGTQVTVSS | high polyreactivity |
| QVQLLESGGGLGQAGGSLRLSCAASGSILSINGMGWYRQAPGKERELVATIDGSDGSTFYADSVKGRFTISRDNAKNTVYLQMNSQKPEDTAVYYCAAENFWQTKEYDYWGQGTQVTVSS | low polyreactivity |
| QVQLVESGGGLVQAGGSLRLSCAASGRTFVYNAMGWYRQAPGKERQLVAGITNGGSTNYADSVKGRFTISRDNAKNTVYLQMNSLKPEDTAVYYCAADSRVYPYYFGHFGFWGQGTQVTVSS | low polyreactivity |
| QDQLLESGGGLVQAGGSLRISCAASGRTIIRNAMGWSRQAPGKERELVAAITSGGSTNYADSVKGRFTISRDNAKNTVYLQMNSLKPEDTAVYYCAARYGSQYKHRFYYWGQGTQVTVSS | high polyreactivity |
| QVQLVESGGGFVQAGGSLRLSCASSGRIFRGYTMGWYRQAPGKEREFVAAIRRSGGTTYYADSVKRRFTISRDNAKNTVYLQMNSLKPEDTAVYYCAAGYPGFTYQRRKYDYWGQGTQVTVSS | high polyreactivity |
| QVQLVESGGGLVQAGGSLRLSCAASGFIFLEYAMGWYRQAPGKERELVAAISSRGTRTYYADSVKGRFTISRDNAKNTVYLQMNSLKPEDSAVYYCARVWSQSSNYEYDYWGQGTQVTVSS | high polyreactivity |
| QVQLVESGGGLVQAGGSLRLSCAACVFIFSRYAMGWYRQAPGKERELVAAISRGGSTNYADSVKGRFTISRDNAKNTVYLQMNSLKPEDTAVYYCAVRQNVRYYYWGQGTQVTVSS | high polyreactivity |
| QVQLVESGGGLVQAGGSLRLSCAASGRIFSPNAMGWYRQAPGKERELVAAITRGGSTNYADSVKGRFTISRDNAKNTVYLQMNSLKPEDTAVYYCAAQLAKTIRGRGYNSWGQGTQVTVSS | low polyreactivity |
| QVQLVESGGGLVQAGGSLRLSCAASGRIFPWNTMGWYRQAPGKERELVAGITSCGSTNYADSVKGRFTISRDNAKNTVYLQMNSLKPEDTAVYSCAARGYYWYISGVYEYEYWGQGTQVTVSS | low polyreactivity |
| QVQLVESGGGLVQAGGSLRLSCAASGSIERNAMGWYRQAPGKERELVAAISRSGTRTYYADSVKGRFTISRDNAKNTVYLQMNSLKPEDTAVYYCAKASAQWVQFDYWGQGTQVTVSS | high polyreactivity |
| QVQLVESGGGLVQAGGSLRLSCAASGRTFSKYTMGWYIQAPGKERELVAAISYSGGSTYYADSVKGRFTISRDNAKNTVYLKMNSLKPEDTAVYYCAARASTYKYYYWGQGTQVTVSA | high polyreactivity |
| QVQLVESGGGLVQAGGSLRLSCAASGITFWYYAMGWYRQAPGKERELVAAISWDGGSTYYADSVKGRFTISRDNAKNTVYLQMNSLKPEDTAVYYCAAEQYLYTWARHRANFDYWGQGTQVTVSS | high polyreactivity |
